Measured values: paper PMC10752894, “Structural basis for DNA proofreading” (Nature Communications, 2023)

Biological target: ΔG-loop Polγ holoenzyme (Homo sapiens, UniProt P54098;Q9UHN1 26-760+770-1239;26-485, internal_change)
Assay: EMSA; 10 mM Mg2+; affinity not affected by deletion; EMSA: 40 mM Tris-HCl pH 7.9, 60 mM NaCl, 10 mM MgCl2, 5% glycerol, 20 mM 2-mercaptoethanol, 0.1 mg/ml BSA, 150 nM Cy3 scaffold, 10 min room temperature; 0.5% agarose, 0.5X TBE, 4 °C
Settings: protein: recombinant; tags: N-terminal His (both subunits); copies: 1;2; label: 5'-Cy3 on DNA24; primer-template, 24 nt 5' template overhang

Sequence of ΔG-loop Polγ holoenzyme (P54098 other isoform, or with tags, fused parts or gaps | mutant, chain 1 of 2): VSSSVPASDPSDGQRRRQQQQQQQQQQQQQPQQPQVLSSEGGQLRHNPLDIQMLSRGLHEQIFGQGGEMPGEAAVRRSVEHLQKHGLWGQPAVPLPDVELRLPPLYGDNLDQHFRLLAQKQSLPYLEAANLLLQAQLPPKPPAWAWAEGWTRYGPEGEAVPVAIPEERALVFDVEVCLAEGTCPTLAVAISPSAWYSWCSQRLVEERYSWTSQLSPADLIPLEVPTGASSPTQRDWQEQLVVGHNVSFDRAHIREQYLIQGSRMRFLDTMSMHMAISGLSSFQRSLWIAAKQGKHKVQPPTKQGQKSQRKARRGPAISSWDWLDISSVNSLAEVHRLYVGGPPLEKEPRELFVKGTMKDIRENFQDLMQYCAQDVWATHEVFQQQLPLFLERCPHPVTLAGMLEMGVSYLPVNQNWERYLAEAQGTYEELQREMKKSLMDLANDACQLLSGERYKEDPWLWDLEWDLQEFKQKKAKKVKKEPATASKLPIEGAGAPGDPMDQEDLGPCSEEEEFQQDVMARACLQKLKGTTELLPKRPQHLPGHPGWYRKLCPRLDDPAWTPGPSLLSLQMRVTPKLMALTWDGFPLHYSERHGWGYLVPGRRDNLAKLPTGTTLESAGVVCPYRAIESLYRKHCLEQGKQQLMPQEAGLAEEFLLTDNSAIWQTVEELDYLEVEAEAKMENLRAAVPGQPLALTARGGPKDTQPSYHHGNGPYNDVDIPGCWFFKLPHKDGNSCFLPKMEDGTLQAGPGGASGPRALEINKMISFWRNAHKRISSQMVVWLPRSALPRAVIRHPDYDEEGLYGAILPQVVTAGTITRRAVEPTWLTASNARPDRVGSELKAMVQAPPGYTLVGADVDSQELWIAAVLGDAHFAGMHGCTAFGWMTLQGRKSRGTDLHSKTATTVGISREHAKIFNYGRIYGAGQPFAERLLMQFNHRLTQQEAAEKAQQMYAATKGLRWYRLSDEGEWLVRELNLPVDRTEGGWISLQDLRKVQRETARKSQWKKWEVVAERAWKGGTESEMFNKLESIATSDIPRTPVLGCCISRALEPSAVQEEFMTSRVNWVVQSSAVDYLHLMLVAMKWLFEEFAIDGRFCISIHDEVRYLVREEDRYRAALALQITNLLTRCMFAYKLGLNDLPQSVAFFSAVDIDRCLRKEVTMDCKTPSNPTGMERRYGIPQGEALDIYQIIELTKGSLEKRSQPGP
Sequence of ΔG-loop Polγ holoenzyme (Q9UHN1 26-485, stated change not applied, chain 2 of 2): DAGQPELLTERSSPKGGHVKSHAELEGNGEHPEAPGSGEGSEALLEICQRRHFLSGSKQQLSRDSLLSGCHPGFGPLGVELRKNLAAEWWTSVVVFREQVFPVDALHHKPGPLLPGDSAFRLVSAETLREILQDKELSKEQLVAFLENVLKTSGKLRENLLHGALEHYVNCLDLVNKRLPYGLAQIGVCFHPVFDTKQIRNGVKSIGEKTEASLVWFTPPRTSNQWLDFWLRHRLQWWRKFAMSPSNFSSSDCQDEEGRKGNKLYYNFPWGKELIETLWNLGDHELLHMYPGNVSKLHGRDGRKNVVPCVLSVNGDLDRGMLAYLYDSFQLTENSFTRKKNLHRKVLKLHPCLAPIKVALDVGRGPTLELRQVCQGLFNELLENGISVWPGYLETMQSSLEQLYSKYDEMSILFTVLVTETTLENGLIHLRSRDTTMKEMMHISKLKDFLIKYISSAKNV

B1: DNA24/DNA24TS (dsDNA)
DNA 1: GGTACAACTTGACGACATAGCGTG
DNA 2: CGGTCGAGTCACGACTCCGATTATCACGCTATGTCGTCAAGTTGTACC
binding result: binds
